{
  "source": "patent US20090325168",
  "key": {"[1]": {"system": "T1, 6-TMR-K-NorFES-KGY-6-TMR", "T1 sequence": "KDAIPXSIPKGY"}, "[2]": {"system": "T2, 6-TMR-K-NorFES-KGY-DER", "T2 sequence": "KDAIPXSIPKGY"}, "[3]": {"system": "T3, 6-TMR-NorFES-KGY-6-TMR", "T3 sequence": "DAIPXSIPKGY"}, "[4]": {"system": "T4, 6-TMR-NorFES-KGY-DER", "T4 sequence": "DAIPXSIPKGY"}, "[5]": {"system": "T5, DER-NorFES-KGY-DER", "T5 sequence": "DAIPXSIPKGY"}, "[6]": {"system": "T6, Fl-NorFES-KGY-Fl (fluorescein-NorFES-fluorescein)", "T6 sequence": "DAIPXSIPKGY"}},
  "data": [
    {"substance": "elastase", "values": [
      {"measurement": "T1/2 (cleavage rate)", "setting": "[1]", "value": 1.4, "unit": "min"},
      {"measurement": "T1/2 (cleavage rate)", "setting": "[2]", "value": 2.08, "unit": "min"},
      {"measurement": "T1/2 (cleavage rate)", "setting": "[3]", "value": 0.733, "unit": "min"},
      {"measurement": "T1/2 (cleavage rate)", "setting": "[4]", "value": 1.33, "unit": "min"},
      {"measurement": "T1/2 (cleavage rate)", "setting": "[5]", "value": 2.53, "unit": "min"},
      {"measurement": "T1/2 (cleavage rate)", "setting": "[6]", "value": 0.3, "unit": "min"}
    ]}
  ]
}
